Results as given in PMC4689616 (Nature cell biology, 2015).

Key:
TTC7B(9-843) = biological target: T1, TTC7B(9-843) (UniProt Q86TV6 9-843); assay: SEC
T1 sequence: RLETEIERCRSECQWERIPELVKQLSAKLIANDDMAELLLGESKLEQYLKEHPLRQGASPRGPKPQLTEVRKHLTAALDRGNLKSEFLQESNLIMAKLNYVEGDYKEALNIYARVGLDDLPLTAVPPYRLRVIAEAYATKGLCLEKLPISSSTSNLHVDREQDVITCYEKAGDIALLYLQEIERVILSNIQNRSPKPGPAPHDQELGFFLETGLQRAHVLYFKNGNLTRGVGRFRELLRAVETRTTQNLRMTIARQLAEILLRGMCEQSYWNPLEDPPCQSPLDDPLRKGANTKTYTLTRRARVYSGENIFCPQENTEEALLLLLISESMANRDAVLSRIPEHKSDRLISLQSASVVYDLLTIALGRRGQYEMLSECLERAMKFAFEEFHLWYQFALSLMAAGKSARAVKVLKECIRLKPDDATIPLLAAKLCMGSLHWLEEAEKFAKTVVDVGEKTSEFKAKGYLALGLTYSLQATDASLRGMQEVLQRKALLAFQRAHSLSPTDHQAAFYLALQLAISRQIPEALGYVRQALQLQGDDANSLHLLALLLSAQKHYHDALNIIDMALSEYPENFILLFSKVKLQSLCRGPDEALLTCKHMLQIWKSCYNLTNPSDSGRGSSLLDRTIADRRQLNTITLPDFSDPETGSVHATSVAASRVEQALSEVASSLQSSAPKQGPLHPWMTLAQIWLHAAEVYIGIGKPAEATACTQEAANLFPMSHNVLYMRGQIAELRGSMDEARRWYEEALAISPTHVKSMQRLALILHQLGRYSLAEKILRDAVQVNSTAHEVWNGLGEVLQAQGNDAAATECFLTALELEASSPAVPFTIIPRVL

[1] = biological target: 3xFLAG-PI4KIIIα (wild-type) (UniProt P42356-1 1-2102); assay: pull-down

B1: FAM126A(2-308) (domain or fragment)
chain: FTSEKGVVEEWLSEFKTLPETSLPNYATNLKDKSSLVSSLYKVIQEPQSELLEPVCHQLFEFYRSGEEQLLQFTLQFLPELIWCYLAVSASRNVHSSGCIEALLLGVYNLEIVDKQGHTKVLSFTIPSLSKPSVYHEPSSIGSMALTESALSQHGLSKVVYSGPHPQREMLTAQNRFEVLTFLLLCYNAALTYMPSVSLQSLCQICSRICVCGYPRQHVRKYKGISSRIPVSSGFMVQMLTGIYFAFYNGEWDLAQKALDDIIYRAQLELYPEPLLVANAIKASLPHGPMKSNKEGTRCIQVEITPT
TTC7B(9-843)
  binding result: binds

B2: GST-FAM126A-N/TTC7B dimer (complex)
chain 1: FTSEKGVVEEWLSEFKTLPETSLPNYATNLKDKSSLVSSLYKVIQEPQSELLEPVCHQLFEFYRSGEEQLLQFTLQFLPELIWCYLAVSASRNVHSSGCIEALLLGVYNLEIVDKQGHTKVLSFTIPSLSKPSVYHEPSSIGSMALTESALSQHGLSKVVYSGPHPQREMLTAQNRFEVLTFLLLCYNAALTYMPSVSLQSLCQICSRICVCGYPRQHVRKYKGISSRIPVSSGFMVQMLTGIYFAFYNGEWDLAQKALDDIIYRAQLELYPEPLLVANAIKASLPHGPMKSNKEGTRCIQVEITPT
chain 2: RLETEIERCRSECQWERIPELVKQLSAKLIANDDMAELLLGESKLEQYLKEHPLRQGASPRGPKPQLTEVRKHLTAALDRGNLKSEFLQESNLIMAKLNYVEGDYKEALNIYARVGLDDLPLTAVPPYRLRVIAEAYATKGLCLEKLPISSSTSNLHVDREQDVITCYEKAGDIALLYLQEIERVILSNIQNRSPKPGPAPHDQELGFFLETGLQRAHVLYFKNGNLTRGVGRFRELLRAVETRTTQNLRMTIARQLAEILLRGMCEQSYWNPLEDPPCQSPLDDPLRKGANTKTYTLTRRARVYSGENIFCPQENTEEALLLLLISESMANRDAVLSRIPEHKSDRLISLQSASVVYDLLTIALGRRGQYEMLSECLERAMKFAFEEFHLWYQFALSLMAAGKSARAVKVLKECIRLKPDDATIPLLAAKLCMGSLHWLEEAEKFAKTVVDVGEKTSEFKAKGYLALGLTYSLQATDASLRGMQEVLQRKALLAFQRAHSLSPTDHQAAFYLALQLAISRQIPEALGYVRQALQLQGDDANSLHLLALLLSAQKHYHDALNIIDMALSEYPENFILLFSKVKLQSLCRGPDEALLTCKHMLQIWKSCYNLTNPSDSGRGSSLLDRTIADRRQLNTITLPDFSDPETGSVHATSVAASRVEQALSEVASSLQSSAPKQGPLHPWMTLAQIWLHAAEVYIGIGKPAEATACTQEAANLFPMSHNVLYMRGQIAELRGSMDEARRWYEEALAISPTHVKSMQRLALILHQLGRYSLAEKILRDAVQVNSTAHEVWNGLGEVLQAQGNDAAATECFLTALELEASSPAVPFTIIPRVL
[1]
  binding result: binds
